B1: bsAb19153D (bispecific antibody, V domains shown)
VH 1: QVQLVESGGGVVQPGRSLRLSCTASGFTFSSYAMYWVRQAPGKGLEWVSVIYYDGSYKYYADSVKGRFTISRDNSKNTLYLQMDSLRAEDTAVYYCASYNWNYWYFDFWGRGTLVTVSS
VH 2: QVQLVQSGAEVMKPGASVKVSCRASGYTFSSYDINWVRQAPGQGLEWMGWISTATGNTNYPQKVQGRVTMTTDTSTNTAYMELRSLRSDDTAVYYCTREGNSKGWLDPWGQGTLVTVSS
VL: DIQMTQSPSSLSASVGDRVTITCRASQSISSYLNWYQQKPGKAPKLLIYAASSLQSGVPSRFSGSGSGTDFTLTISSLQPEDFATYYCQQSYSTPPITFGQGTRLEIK
notes: common light chain
B2: bsAb19155D (bispecific antibody, V domains shown)
VH 1: B1 VH 1
VH 2: EVQLVESGGGLVQPGGSLRLSCAASGFTFSTYWMNWVRQAPGKGLEWVANIKEDGSEKYYVDSVKGRFTISRDNAKNSLYLQMNSLRAEDTAVYYCAREGFGVVTYIWGQGTMVTVSS
VL: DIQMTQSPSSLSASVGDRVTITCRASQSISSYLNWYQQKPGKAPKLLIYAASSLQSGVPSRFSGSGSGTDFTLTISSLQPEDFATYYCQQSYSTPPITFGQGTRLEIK
notes: common light chain
B3: bsAb19156D (bispecific antibody, V domains shown)
VH 1: B1 VH 1
VH 2: QVQLVESGGGLVKPGGSLRLSCAASGFTFSDYYMTWIRQTPGKGLDWVSYISSSGTNKYNADSVKGRFTISRDNAKNSLYLQMNSLRAEDTAVYYCVRDPPWGMDVWGQGTTVTVSS
VL: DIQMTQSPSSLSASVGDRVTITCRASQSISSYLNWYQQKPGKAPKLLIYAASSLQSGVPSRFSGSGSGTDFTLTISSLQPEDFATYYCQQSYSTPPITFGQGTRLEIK
notes: common light chain
B4: bsAb19154D (bispecific antibody, V domains shown)
VH 1: B1 VH 1
VH 2: QVQLQQSGPGQMKSSQTLTLTCAISGDSVSSNSAIWYWIRQSPSRGLEWLGRTKFRSKWYNDFALSMKSRITINPDTSKNQFSLHLNSVTPEDTAVYYCARYKWELYFDYWGQGTLVTVSS
VL: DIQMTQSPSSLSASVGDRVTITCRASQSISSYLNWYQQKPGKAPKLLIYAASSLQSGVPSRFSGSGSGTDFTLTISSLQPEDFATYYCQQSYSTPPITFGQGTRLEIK
notes: common light chain
B5: bsAb19757D (bispecific antibody, V domains shown)
VH 1: EVQLVESGGGLVQPGGSLRLSCVASGFTFNKYDMHWVRQTTGKGLEWVSGIDTDGDTYYPGSVKGRFTISRENAENSLYLQMNGLRVGDTAVYYCARWPWSGFYGAFDIWGQGTMVTVSS
VH 2: EVQLVESGGGVVRPGGSLRLSCTASGFTFDDYGMSWVRQAPGKGLEWVSGINWNGGRTEYADAVKGRFIISRDNAKNSLYLQMNSLRAEDTALYFCARTELRWDYWGQGTLVTVSS
VL: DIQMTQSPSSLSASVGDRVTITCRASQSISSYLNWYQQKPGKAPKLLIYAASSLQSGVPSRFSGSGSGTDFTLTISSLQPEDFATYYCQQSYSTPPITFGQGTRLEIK
notes: common light chain
B6: bsAb19758D (bispecific antibody, V domains shown)
VH 1: B5 VH 1
VH 2: EVQLVESGGGLVQSGGSLRLSCAASGFTFSRYEMNWVRQAPGKGLEWVAYISNTGTTRDYSDSVKGRFTISRDNAKNSLYLQMSSLRVEDTAVYYCVREKFSGTSDWFDPWGQGTLVTVSS
VL: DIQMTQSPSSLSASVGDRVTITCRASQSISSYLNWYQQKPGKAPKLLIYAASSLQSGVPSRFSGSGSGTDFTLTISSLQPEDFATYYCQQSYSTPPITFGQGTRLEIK
notes: common light chain
B7: bsAb21236D (bispecific antibody, V domains shown)
VH 1: QVQLQESGPGLVKPSQTLSLTCTVSGGSISSGGDYWSWIRQLPGKGLEWIGYIYYSGSAYYNPSLKSRGTISIDTSKNQFSLKLTSVTAADTAVYFCVKLRFLEWFLGGWFGPWGQGTLVTVSS
VH 2: B3 VH 2
VL: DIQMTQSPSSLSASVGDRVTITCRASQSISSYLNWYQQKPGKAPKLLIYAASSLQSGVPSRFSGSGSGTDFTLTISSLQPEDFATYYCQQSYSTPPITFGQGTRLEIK
notes: common light chain; also called H4H21236D
B8: bsAb21237D (bispecific antibody, V domains shown)
VH 1: EVQLVESGGGLVQPGGSLRLSCAASGFTFSNYGMTWVRQAPGKGLEWVSAITGGGGSTYYSNSVKGRFTISRDNSKNTVYLRMNSVRAEDTAVYYCAKYKWNFVDDWGQGTTVTVSS
VH 2: B3 VH 2
VL: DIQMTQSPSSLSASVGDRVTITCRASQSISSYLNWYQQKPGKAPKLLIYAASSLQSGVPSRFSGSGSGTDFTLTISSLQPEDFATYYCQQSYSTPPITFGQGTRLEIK
notes: common light chain; also called H4H21237D

For the first experiment, the target named is T1, human LEPR extracellular domain expressed with a C-terminal myc-myc-hexahistidine tag (human, UniProt P48357 22-839).
T1 construct: Monomeric reagent; the whole entry is the construct with its tag; also called hLEPR-MMH; hLEPR.mmh
The experiment in a line: SPR Biacore 4000, bsAb captured by anti-human Fc, 25 C. The method, then:
(§1) Equilibrium dissociation constants (KD values) for LEPR and GP130 binding to purified anti-LEPR/GP130 bispecific antibodies were determined using a real-time surface plasmon resonance biosensor using a Biacore 4000 instrument. All binding studies were performed in 10 mM HEPES, 150 mM NaCl, 3 mM EDTA, and 0.05% v/v Surfactant Tween-20, pH 7.4 (HBS-ET) running buffer at 25° C. and 37° C. The Biacore sensor surface was first derivatized by amine coupling with a monoclonal mouse anti-human Fc antibody (GE, #BR-1008-39) to capture anti-LEPR/GP130 bispecific antibodies. […] Different concentrations of LEPR or GP130 reagents were first prepared in HBS-ET running buffer (100 nM-3.7 nM; 3-fold serial dilution) and were injected over anti-human Fc captured anti-LEPR/GP130 bispecific antibody surface for 4 minutes at a flow rate of 30 μL/minute, while the dissociation of bispecific antibody bound LEPR or GP130 reagent was monitored for 10 minutes in HBS-ET running buffer. Kinetic association (kₐ) and dissociation (kd) rate constants were determined by fitting the real-time binding sensorgrams to a 1:1 binding model with mass transport limitation using Scrubber 2.0c curve-fitting software. Binding dissociation equilibrium constants (KD) and dissociative half-lives (t ½) were calculated from the kinetic rate constants as: […]
Background: In SPR one partner is held on a chip, and binding of the other changes the refractive index at the surface.
On to B1, for which the “100 nM hLEPR-MMH Bound (RU)” value was found to be 40 RU; the Kd – broadly, the free concentration of one partner at which half of the binding sites on the other are occupied at equilibrium, for simple one-to-one binding – was found to be 6.46 nM; the koff (commonly the rate constant with which the complex falls apart) is 0.000165 s⁻¹; the kon (usually the rate constant with which the complex forms) stood at 25500 M⁻¹ s⁻¹. Besides, the t½ (commonly the time needed for the level to fall by half in the phase considered) was 70 min.

For the molecule B2, the “100 nM hLEPR-MMH Bound (RU)” value stood at 40 RU, binding was put at a Kd of 6.36 nM, the koff was found to be 0.000153 s⁻¹ and the kon was determined as 24000 M⁻¹ s⁻¹. Further, the t½ amounted to 76 min.

Take B3: the “100 nM hLEPR-MMH Bound (RU)” value is 39 RU, the Kd was determined as 7.11 nM, the koff was found to be 0.000164 s⁻¹ and the kon stood at 23100 M⁻¹ s⁻¹. The molecule also came in with a t½ of 70 min.

Take B4: the “100 nM hLEPR-MMH Bound (RU)” value was determined as 40 RU, binding was put at a Kd of 7.95 nM, the koff amounted to 0.00018 s⁻¹ and the kon was determined as 22600 M⁻¹ s⁻¹. Further, the t½ amounted to 64 min.

As for B5, the “100 nM hLEPR-MMH Bound (RU)” value is 57 RU, the Kd was 7.85 nM, the off-rate constant (koff) came to 0.000162 s⁻¹ and the kon turned out to be 20700 M⁻¹ s⁻¹. The same molecule returned a t½ of 71 min.

For B6, the “100 nM hLEPR-MMH Bound (RU)” value came to 54 RU; the affinity, expressed as Kd, was 10.3 nM; the koff worked out at 0.000163 s⁻¹; the kon came out at 15900 M⁻¹ s⁻¹. This molecule had a t½ of 71 min.

In turn, B7 yielded an equilibrium dissociation constant (Kd) of 106 nM, a koff of 0.00372 s⁻¹, a kon of 35100 M⁻¹ s⁻¹ and a t½ of 3.1 min.

With B8, the “100 nM hLEPR-MMH Bound (RU)” value came to 11 RU, the dissociation constant (Kd) is 78.7 nM, the koff turned out to be 0.00121 s⁻¹ and the kon worked out at 15300 M⁻¹ s⁻¹.

The target of a further experiment is T2, Macaca Fascicularis LEPR extracellular domain expressed with a C-terminal myc-myc-hexahistidine tag (Macaca fascicularis, UniProt Q9MYL0 22-837 (rhesus entry)).
T2 construct: Monomeric reagent; the whole entry is the construct with its tag; also called mfLEPR-MMH
The description is as above. The method, then:
as §1
In the case of B1, the “100 nM mfLEPR-MMH Bound (RU)” value turned out to be 102 RU, the Kd was 2.96 nM, the koff stood at 0.000126 s⁻¹ and the kon is 42600 M⁻¹ s⁻¹. The same molecule displayed a t½ of 92 min.

With B2, the “100 nM mfLEPR-MMH Bound (RU)” value turned out to be 103 RU, the dissociation constant Kd was 2.9 nM, the koff was determined as 0.000122 s⁻¹ and the kon worked out at 42000 M⁻¹ s⁻¹. The molecule also gave a t½ of 95 min.

On to B3, for which the “100 nM mfLEPR-MMH Bound (RU)” value turned out to be 97 RU, the Kd was 3.27 nM, the koff was found to be 0.000132 s⁻¹ and the kon stood at 40400 M⁻¹ s⁻¹. Moreover, the t½ came to 87 min.

B4: the “100 nM mfLEPR-MMH Bound (RU)” value is 102 RU, the equilibrium dissociation constant (Kd) was found to be 2.96 nM, the koff was determined as 0.000121 s⁻¹ and the kon stood at 40800 M⁻¹ s⁻¹. The molecule also came in with a t½ of 96 min.

For the molecule B5, the “100 nM mfLEPR-MMH Bound (RU)” value is 7 RU.

Take B6: the “100 nM mfLEPR-MMH Bound (RU)” value stood at 9 RU, the Kd is 583 nM, the koff worked out at 0.0225 s⁻¹ and the on-rate constant (kon) is 38600 M⁻¹ s⁻¹. The same molecule yielded a t½ of 0.5 min.

For B7, the “100 nM mfLEPR-MMH Bound (RU)” value stood at 12 RU, the Kd is 83.4 nM, the koff amounted to 0.00482 s⁻¹ and the on-rate constant (kon) was 57900 M⁻¹ s⁻¹. The t½ came out at 2.4 min.

In the case of B8, the “100 nM mfLEPR-MMH Bound (RU)” value was determined as 16 RU, the Kd was 37.8 nM, the koff amounted to 0.00116 s⁻¹ and the kon came out at 30800 M⁻¹ s⁻¹.

The target of the next experiment is T1, human LEPR extracellular domain …. The experiment in a line: SPR Biacore 4000, bsAb captured by anti-human Fc, 37 C. As to the method: as §1
As to B1, the “100 nM hLEPR-MMH Bound (RU)” value came to 65 RU, the dissociation constant Kd was 19.7 nM, the koff was 0.000791 s⁻¹ and the kon is 40100 M⁻¹ s⁻¹. Moreover, the t½ worked out at 15 min.

Regarding B2, the “100 nM hLEPR-MMH Bound (RU)” value was 63 RU, binding was put at a Kd of 20 nM, the off-rate constant (koff) turned out to be 0.000792 s⁻¹ and the on-rate constant (kon) turned out to be 39700 M⁻¹ s⁻¹. Moreover, the t½ worked out at 15 min.

For B3, the “100 nM hLEPR-MMH Bound (RU)” value came to 60 RU, the Kd came to 23 nM, the koff stood at 0.000842 s⁻¹ and the kon was 36600 M⁻¹ s⁻¹. The molecule further showed a t½ of 14 min.

In the case of B4, the “100 nM hLEPR-MMH Bound (RU)” value was 65 RU, the Kd amounted to 19.2 nM, the koff was 0.000729 s⁻¹ and the on-rate constant (kon) was 37900 M⁻¹ s⁻¹. This molecule also returned a t½ of 16 min.

For B5, the “100 nM hLEPR-MMH Bound (RU)” value worked out at 81 RU, binding was characterised by a dissociation constant (Kd) of 19.1 nM, the dissociation rate constant (koff) stood at 0.000625 s⁻¹ and the kon is 32800 M⁻¹ s⁻¹. This molecule also yielded a t½ of 18 min.

As for B6, the “100 nM hLEPR-MMH Bound (RU)” value worked out at 73 RU, the Kd was 20.6 nM, the dissociation rate constant (koff) was determined as 0.000663 s⁻¹ and the kon came out at 32300 M⁻¹ s⁻¹. The same molecule gave a t½ of 17 min.

Regarding B7, the “100 nM hLEPR-MMH Bound (RU)” value came to 5 RU, the dissociation constant (Kd) came out at 726 nM, the koff came out at 0.0131 s⁻¹ and the kon stood at 18000 M⁻¹ s⁻¹. In addition, the t½ was determined as 0.9 min.

B8: the “100 nM hLEPR-MMH Bound (RU)” value amounted to 15 RU, binding was put at a Kd of 280 nM, the koff was found to be 0.00442 s⁻¹ and the kon came to 15800 M⁻¹ s⁻¹. Besides, the t½ was 2.6 min.

Another experiment concerns the target T2, Macaca Fascicularis LEPR extracellular …. The description is as above. The method, then:
as §1
In the case of B1, the “100 nM mfLEPR-MMH Bound (RU)” value was 158 RU, binding was characterised by a dissociation constant (Kd) of 8.81 nM, the koff was 0.00058 s⁻¹ and the kon came out at 65800 M⁻¹ s⁻¹. In addition, the t½ is 20 min.

On to B2, for which the “100 nM mfLEPR-MMH Bound (RU)” value was 155 RU, binding was characterised by a dissociation constant (Kd) of 5.49 nM, the koff amounted to 0.000565 s⁻¹ and the kon is 103000 M⁻¹ s⁻¹. Moreover, the t½ was 20 min.

B3: the “100 nM mfLEPR-MMH Bound (RU)” value came to 148 RU, the Kd was 5.88 nM, the koff is 0.000567 s⁻¹ and the kon amounted to 96400 M⁻¹ s⁻¹. Also, the t½ was determined as 20 min.

B4: the “100 nM mfLEPR-MMH Bound (RU)” value was determined as 159 RU, binding was characterised by a dissociation constant (Kd) of 5.64 nM, the koff stood at 0.000541 s⁻¹ and the kon came to 96000 M⁻¹ s⁻¹. The molecule further displayed a t½ of 21 min.

On to B5, for which the “100 nM mfLEPR-MMH Bound (RU)” value amounted to 7 RU.

Turning to B6, the “100 nM mfLEPR-MMH Bound (RU)” value was determined as 5 RU.

Turning to B7, the “100 nM mfLEPR-MMH Bound (RU)” value amounted to 9 RU, the Kd was determined as 284 nM, the koff was 0.0176 s⁻¹ and the kon came to 61900 M⁻¹ s⁻¹. The same molecule returned a t½ of 0.7 min.

Take B8: the “100 nM mfLEPR-MMH Bound (RU)” value stood at 27 RU, binding was characterised by a dissociation constant (Kd) of 151 nM, the koff is 0.00424 s⁻¹ and the kon is 28100 M⁻¹ s⁻¹. Further, the t½ came to 2.7 min.

(Values after patent US20240158497A1 (published 2024).)
